Values belong to the molecule of their own block, whether it stands above or below them. Positions of bridges follow the written chain, without caps; N, C: chain ends. Non-standard residues stand in square brackets, D forms with d. Residues, ends and D or L forms follow the SMILES beside them. hArg = N=C(N)NCCCC[C@H](N)C(=O)O; Mpa = O=C(O)CCS
Assays:
soluble integrin αIIbβ3 [1] = target: T1, soluble integrin αIIbβ3 (Homo sapiens, UniProt P05106+P08514); assay: ELISA-type integrin binding assay, soluble αIIbβ3; details: 1 mM Mn2+
T1 construct: Soluble recombinant αIIbβ3 or αvβ3 (AgroBio, 1 μg/ml); purchased AgroBio
Experimental: (§1) FIG. 2. PF4 specifically binds to soluble αIIbβ3 and αvβ3 in ELISA-type binding assays in 1 mM Mn^2+. FIG. 2a PF4 binds to soluble integrins in 1 mM Mn^2+ in ELISA-type binding assays. PF4 was immobilized to wells of 96-well microtiter plate and incubated with soluble αIIbβ3 or αvβ3 (1 μg/ml) in Tyrode-HEPES buffer with 1 mM Mn^2+ (to activate integrins) for 1 hr at room temperature and bound integrins were quantified using anti-β3 (mAb AV10) and HRP-conjugated anti-mouse IgG. Data are shown as means+/−SD in triplicate experiments. […] FIG. 2b Binding of authentic PF4 (Invitrogen) to integrins. Binding assays were performed as described in (a). PF4 (6.25 μg/ml) was used. Data are shown as means+/−SD in triplicate experiments. […] FIGS. 2c and d The binding of PF4 to integrins was suppressed by the distintegrin domain of ADAM15 fused to GST (ADAM15 disintegrin), but not by control GST. To establish the specificity of PF4 binding to soluble integrins αIIbβ3 (b) and αvβ3 (c), if ADAM15 disintegrin, which is known to bind to integrins αIIbβ3 (22) and αvβ3 (21), suppress the binding. […] Data are shown as means+/−SD in triplicate experiments. […] Bound integrins were quantified as described in (a). […]
(§2) Wells of 96-well microtiter plates were coated with PF4. […] Bound αIIbβ3 or αvβ3 was measured using anti-integrin β3 mAb (AV-10) followed by HRP-conjugated goat anti-mouse IgG and peroxidase substrates.

soluble integrin αvβ3 [2] = target: T2, soluble integrin αvβ3 (Homo sapiens, UniProt P05106+P06756); assay: ELISA-type integrin binding assay, soluble αvβ3; details: competitor 100 μg/ml; immobilized PF4 (12.5 g/ml); 1 mM Mn2+
T2 construct: Soluble recombinant αIIbβ3 or αvβ3 (AgroBio, 1 μg/ml); purchased AgroBio
T2 sequence (P06756 31-992 limits assumed): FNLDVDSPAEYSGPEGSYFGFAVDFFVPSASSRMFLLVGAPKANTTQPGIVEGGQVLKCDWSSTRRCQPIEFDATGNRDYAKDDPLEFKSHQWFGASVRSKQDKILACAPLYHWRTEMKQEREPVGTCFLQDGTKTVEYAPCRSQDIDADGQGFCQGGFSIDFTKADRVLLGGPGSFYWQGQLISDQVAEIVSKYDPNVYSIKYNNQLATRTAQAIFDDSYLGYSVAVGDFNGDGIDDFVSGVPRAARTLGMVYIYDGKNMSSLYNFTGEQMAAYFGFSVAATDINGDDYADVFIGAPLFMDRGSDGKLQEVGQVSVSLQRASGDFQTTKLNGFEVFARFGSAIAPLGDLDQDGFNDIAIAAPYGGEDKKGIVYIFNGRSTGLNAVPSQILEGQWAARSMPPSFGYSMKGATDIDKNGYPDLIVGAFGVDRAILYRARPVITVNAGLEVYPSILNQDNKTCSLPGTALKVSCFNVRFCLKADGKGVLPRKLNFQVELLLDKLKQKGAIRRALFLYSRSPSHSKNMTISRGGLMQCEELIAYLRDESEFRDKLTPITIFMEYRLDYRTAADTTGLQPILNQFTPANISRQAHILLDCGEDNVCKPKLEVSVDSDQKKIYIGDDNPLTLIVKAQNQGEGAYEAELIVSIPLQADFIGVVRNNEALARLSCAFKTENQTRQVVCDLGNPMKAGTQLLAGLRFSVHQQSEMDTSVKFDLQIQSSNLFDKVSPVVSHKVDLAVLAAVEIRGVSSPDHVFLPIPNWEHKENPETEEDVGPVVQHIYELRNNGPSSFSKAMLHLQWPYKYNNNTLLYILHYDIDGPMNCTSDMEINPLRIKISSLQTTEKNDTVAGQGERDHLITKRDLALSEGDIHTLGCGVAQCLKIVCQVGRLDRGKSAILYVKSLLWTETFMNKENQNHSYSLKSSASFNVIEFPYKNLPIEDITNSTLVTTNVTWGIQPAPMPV
T2 sequence (P05106 27-718 limits assumed): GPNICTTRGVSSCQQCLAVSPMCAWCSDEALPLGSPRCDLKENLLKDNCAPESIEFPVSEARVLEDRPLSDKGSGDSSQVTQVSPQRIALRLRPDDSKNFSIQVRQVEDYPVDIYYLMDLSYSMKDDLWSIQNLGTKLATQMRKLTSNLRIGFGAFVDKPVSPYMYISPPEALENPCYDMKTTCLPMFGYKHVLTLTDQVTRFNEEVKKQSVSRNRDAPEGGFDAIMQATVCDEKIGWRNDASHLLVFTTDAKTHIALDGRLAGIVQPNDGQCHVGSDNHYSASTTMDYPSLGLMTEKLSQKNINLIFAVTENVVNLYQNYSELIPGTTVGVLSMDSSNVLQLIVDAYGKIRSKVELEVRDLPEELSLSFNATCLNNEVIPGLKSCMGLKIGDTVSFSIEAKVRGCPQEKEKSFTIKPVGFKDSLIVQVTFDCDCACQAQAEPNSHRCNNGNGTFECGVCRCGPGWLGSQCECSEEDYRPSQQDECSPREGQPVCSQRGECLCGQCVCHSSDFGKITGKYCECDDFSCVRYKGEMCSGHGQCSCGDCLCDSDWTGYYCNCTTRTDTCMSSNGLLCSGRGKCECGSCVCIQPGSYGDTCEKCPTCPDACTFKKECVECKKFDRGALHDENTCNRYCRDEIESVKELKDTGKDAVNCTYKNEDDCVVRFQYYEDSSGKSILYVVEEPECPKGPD
Experimental: as §1, §2

[3] = target: T3, soluble recombinant integrin αvβ3 (UniProt P06756 31-992; P05106 27-718); assay: ELISA-type binding: immobilized PF4, soluble αvβ3 1 µg/ml, 1 mM Mn2+, detection with anti-β3 mAb AV10
T3 construct: Bought soluble heterodimer, used at 1 µg/ml; also called soluble αvβ3
T3 sequence (P06756 31-992, chain 1 of 2): as the sequence (P06756 31-992 limits assumed) above
T3 sequence (P05106 27-718, chain 2 of 2): as the sequence (P05106 27-718 limits assumed) above
Experimental: (§4) Data are shown as means+/−SD in triplicate experiments. […] Binding assays were performed as described in (a). […] Data are shown as means+/−SD in triplicate experiments. […] Data are shown as means+/−SD in triplicate experiments. […] Assays were performed as described in (a). Data is shown as means+/−SD in triplicate experiments. […] Wells were incubated with soluble integrins (1 μg/ml) in Tyrode-HEPES buffer with different cations (1 mM). Bound integrins were quantified as described in (a). Data are shown as means+/−SD in triplicate experiments.

[4] = target: T4, soluble recombinant integrin αIIbβ3 (UniProt P08514 32-993; P05106 27-718); assay: ELISA-type binding: immobilized PF4, soluble αIIbβ3 1 µg/ml, 1 mM Mn2+, detection with anti-β3 mAb AV10
T4 construct: Bought soluble heterodimer, used at 1 µg/ml; also called soluble αIIbβ3
Experimental: as §4

soluble integrin αIIbβ3 [5] = target: T1, soluble integrin αIIbβ3; assay: ELISA-type integrin activation assay, soluble αIIbβ3 binding to immobilized γC390-411; assay type: biochemical; details: for ability of PF4 mutant to mediate RTO/PF4-induced αIIbβ3 activation: PF4 mutant in complex with anti-PF4 RTO, 1 mM Ca2+
Experimental: FIG. 3. […] FIG. 3a. Anti-PF4 (RTO) markedly enhances PF4-induced activation of soluble αIIbβ3 in 1 mM Ca^2+ in ELISA-type activation assays in a dose-dependent manner at physiological concentrations of PF4 (below 1 μg/ml). The fibrinogen fragments γC390-411 (a specific ligand for αIIbβ3) was immobilized to wells of 96-well microtiter plate. […] Anti-PF4 (RTO or KKO, 10 μg/ml) were added (without heparin). After washing, bound integrins were quantified using anti-β3 (mAb AV10) and HRP-conjugated anti-mouse IgG. Mouse IgG (10 μg/ml) and no antibody were used as negative controls. Data are shown as means+/−SD in triplicate experiments. FIG. 3b. […] Commercial PF4 was used instead of our own PF4 preparation. Activation assays were performed as described in a. […] FIG. 3c. Point mutations in the predicted integrin-binding site (site 2) of PF4 suppressed activation of αIIbβ3 by the anti-PF4/PF4 complex. […] FIG. 3d. The R20E/R22E/K46E/R49E mutant suppressed integrin activation by the anti-PF4/PF4 complex. WT PF4 ([…]) and excess PF4 mutant (5 or 10 μg/ml) were used.
(§3) Wells of 96-well microtiter plates were coated with γC390-411 (a specific ligand for αIIbβ3) or γC399tr (a specific ligand for αvβ3). Remaining protein binding sites were blocked with BSA. Soluble recombinant αIIbβ3 or αvβ3 (AgroBio, 1 μg/ml) was pre-incubated with chemokines PF4 or anti-PF4/PF4 for 10 min at room temperature and was added to the wells and incubated in HEPES-Tyrodes buffer with 1 mM CaCl2 for 1 h at room temperature. After unbound αIIbβ3 or αvβ3 was removed by rinsing the wells with binding buffer, bound αIIbβ3 or αvβ3 was measured using anti-integrin B3 mAb (AV-10) followed by HRP-conjugated goat anti-mouse IgG and peroxidase substrates.

soluble integrin αvβ3 [6] = target: T2, soluble integrin αvβ3; assay: ELISA-type integrin activation assay, soluble αvβ3 binding to immobilized γC399tr; assay type: biochemical; details: for ability of PF4 mutant to mediate RTO/PF4-induced αvβ3 activation: PF4 mutant in complex with anti-PF4 RTO, 1 mM Ca2+
Experimental: FIG. 4. […] FIG. 4a. Anti-PF4 (RTO) markedly enhances PF4-induced activation of soluble αvβ3 in 1 mM Ca^2+ in ELISA-type activation assays. Fibrinogen fragment γC399tr (151-399 segment of fibrinogen γ chain, a specific ligand for αvβ3) was immobilized to wells of 96-well microtiter plate. […] Anti-PF4 (RTO or KKO, 10 μg/ml) were added (without heparin). After washing, bound integrins were quantified using anti-β3 (mAb AV10) and HRP-conjugated anti-mouse IgG. Mouse IgG (10 μg/ml) and no antibody were used as negative controls. […] FIG. 4b. […] Commercial PF4 was used instead of our own PF4 preparation. Activation assays were performed as described in a. […] FIG. 4c. Point mutations in the predicted integrin-binding site (site 2) of PF4 suppressed activation of αvβ3 by the anti-PF4/PF4 complex. […] FIG. 4d. The R20E/R22E/K46E/R49E mutant suppressed integrin activation by the RTO/PF4 complex. WT PF4 (0.5 μg/ml) and excess PF4 mutant (5 or 10 μg/ml) were used.
as §3

Molecule: N=C(N)NCCCC[C@@H]1NC(=O)CCSSC[C@@H](C(N)=O)NC(=O)[C@@H]2CCCN2C(=O)[C@H](Cc2c[nH]c3ccccc23)NC(=O)[C@H](CC(=O)O)NC(=O)CNC1=O [eptifibatide] ([Mpa][hArg]GDWPC-NH2; disulfide 1-7)
- effect of integrin antagonists on PF4 binding to αIIbβ3 (soluble integrin αIIbβ3 [1]; PF4 coated at 50 μg/ml, mAb 7E3 10 μg/ml, eptifibatide 0.65 μg/ml, cyclic RGDfV 10 μM): weak inhibition

- suppression of αIIbβ3 binding to immobilized PF4 (soluble integrin αIIbβ3 [1]; competitor 100 μg/ml, immobilized PF4 (12.5 g/ml)): suppressed
- suppression of αvβ3 binding to immobilized PF4 (soluble integrin αvβ3 [2]): suppressed
Molecule: ADAM15 disintegrin: disintegrin domain of ADAM15 fused to GST, known to bind integrins αIIbβ3 and αvβ3

- Kd [3]: < 1 µg/mL
- Kd [4]: < 1 µg/mL
B1: PF4 (platelet factor 4, chemokine CXCL4), preparation generated in the inventors' lab (ligand)
chain: EAEEDGDLQCLCVKTTSQVRPRHITSLEVIKAGPHCPTAQLIATLKNGRKICLDLQAPLYKKIIKKLLES
notes: Made in E. coli BL21 from pET28a as inclusion bodies, purified on Ni-NTA under denaturing conditions and renatured; also called WT PF4; wild-type PF4; not shown: Vector-derived N-terminal tag and leader of pET28a (His tag used for Ni-NTA purification, BamHI/EcoRI insert)

- ability of PF4 mutant to mediate RTO/PF4-induced αIIbβ3 activation (soluble integrin αIIbβ3 [5]): reduced ability
- ability of PF4 mutant to mediate RTO/PF4-induced αvβ3 activation (soluble integrin αvβ3 [6]): reduced ability
B2: R20E/R22E: PF4 (SEQ ID NO: 1) double mutant, Arg20 and Arg22 mutated to Glu (protein)
chain: EAEEDGDLQCLCVKTTSQVEPEHITSLEVIKAGPHCPTAQLIATLKNGRKICLDLQAPLYKKIIKKLLES
modifications: Description ofsequence: PF4 sp|P02776|32-101

- ability of PF4 mutant to mediate RTO/PF4-induced αIIbβ3 activation (soluble integrin αIIbβ3 [5]): most effectively reduced
- suppression of αIIbβ3 activation by the anti-PF4/PF4 complex (antagonist effect) (soluble integrin αIIbβ3 [5]; WT PF4 (0.5 g/ml) and excess PF4 mutant (5 or 10 μg/ml), RTO): suppressed
- ability of PF4 mutant to mediate RTO/PF4-induced αvβ3 activation (soluble integrin αvβ3 [6]): most effectively reduced
- suppression of αvβ3 activation by the RTO/PF4 complex (antagonist effect) (soluble integrin αvβ3 [6]; WT PF4 (0.5 μg/ml) and excess PF4 mutant (5 or 10 μg/ml), RTO): suppressed
B3: R20E/R22E/K46E/R49E: PF4 (SEQ ID NO: 1) quadruple mutant defective in site 2 binding; dominant-negative antagonist (protein)
chain: EAEEDGDLQCLCVKTTSQVEPEHITSLEVIKAGPHCPTAQLIATLENGEKICLDLQAPLYKKIIKKLLES
modifications: Description ofsequence: PF4 sp|P02776|32-101
notes: dominant-negative antagonist

- ability of PF4 mutant to mediate RTO/PF4-induced αIIbβ3 activation (soluble integrin αIIbβ3 [5]): reduced ability
- ability of PF4 mutant to mediate RTO/PF4-induced αvβ3 activation (soluble integrin αvβ3 [6]): reduced ability
B4: K46E/R49E: PF4 (SEQ ID NO: 1) double mutant, Lys46 and Arg49 mutated to Glu (protein)
chain: EAEEDGDLQCLCVKTTSQVRPRHITSLEVIKAGPHCPTAQLIATLENGEKICLDLQAPLYKKIIKKLLES
modifications: Description ofsequence: PF4 sp|P02776|32-101

Reference: patent US20250003978A1, “DIAGNOSIS AND TREATMENT OF ANTI-PF4 INDUCED THROMBOCYTOPENIA” (The Regents of the University of California, priority 2021, published 2025)
